From patent US20260008852A1 come the findings set out here.

Assay [1] addresses His-tagged human B7-H3 (human) (UniProt Q5ZPR3). Briefly: ELISA OD450 on hu B7-H3 over OD450 on mu B7-H3. (ELISA stands for enzyme-linked immunosorbent assay.)
The target is the same in assay [2]. Briefly: ELISA, coated His-tagged antigen, scFv-Fc 1 ug/ml.
Assay [3] concerns the target His-tagged mouse B7-H3 (mouse) (UniProt Q8VE98). The assay can be described thus: ELISA, coated His-tagged antigen, scFv-Fc 1 ug/ml.

Sequence of His-tagged human B7-H3 (human) (Q5ZPR3 other isoform, or with tags, fused parts or gaps limits assumed): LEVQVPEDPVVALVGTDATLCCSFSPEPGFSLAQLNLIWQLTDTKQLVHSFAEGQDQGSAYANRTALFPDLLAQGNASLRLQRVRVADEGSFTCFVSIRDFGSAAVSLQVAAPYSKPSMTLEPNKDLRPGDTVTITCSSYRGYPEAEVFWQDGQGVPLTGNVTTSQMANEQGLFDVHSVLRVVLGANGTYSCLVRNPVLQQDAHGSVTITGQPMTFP
Sequence of His-tagged mouse B7-H3 (mouse) (Q8VE98 29-244 limits assumed): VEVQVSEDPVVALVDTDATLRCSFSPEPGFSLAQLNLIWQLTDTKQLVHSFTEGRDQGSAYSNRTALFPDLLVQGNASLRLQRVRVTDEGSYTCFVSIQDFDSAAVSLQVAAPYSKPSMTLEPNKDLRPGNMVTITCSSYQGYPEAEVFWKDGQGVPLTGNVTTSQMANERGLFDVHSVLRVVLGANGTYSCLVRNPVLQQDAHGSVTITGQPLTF

B1: 40579p1.H11 (scFv, V domains shown)
VH: EVQLLESGGGLVQPGGSLRLSCAASGFTFDDYGMSWVRQAPGKGLEWVSAIRSKASSYATYYADSVKGRFTVSRDNSENTLYLQMNSLRAEDTAVYYCAKHRSNYYFMDVWGQGTTVTVSS
VL: EIVLTQSPGTLSLSPGERATLSCRASQSVGSDLAWYQQRPGQAPRLLIYAASSRATDIPDRFSGSGSGTDFTLTISSLQSEDFAVYYCQQYYSWPPLTFGGGTKVEIK
As to B1, the hu:mu ratio in assay [1] was determined as 1.51. Moreover, the ELISA OD450 @ 1 ug/ml in assay [2] was determined as 0.077 OD450.

B2: 40633p1.2.C11 (scFv, V domains shown)
VH: EVQLLESGGGLVQPGGSLRLSCAASGFTFSSYWMSWVRQAPGKGLEWVAGINRNGGSTYYADSVKGRFTISRDNSENTLYLQVNSLRAEDTAVYYCARWNDYDIMDVWGQGTTVTVSS
VL: QSVLTQPSSASGTPGQRVTISCSGSSSNVGRRAVNWYQQLPGTAPKLLISNSQRPSGVPDRFSGSKSGTSASLAISGLQSEDEADYYCATWDASLNSWVFGGGTKLTVL
B2: in assay [1], the hu:mu ratio turned out to be 1.09. Besides, the ELISA OD450 @ 1 ug/ml came to 0.049 OD450 in assay [2] and 0.045 OD450 in assay [3].
